From the nanobody polyreactivity screen of Harvey et al. (2022)

Test: yeast display, Sf9 membrane polyspecificity reagent, FACS + sequencing; frameworks hold sequencing errors
Summary of the method: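 Polyreactivity labels are assigned by the sorting gate from which each nanobody was recovered. The gates were low and high (top ~1%), set on anti-HA fluorescence for expression and streptavidin fluorescence for reagent binding. Before sorting, galactose-induced (36–48 hours) yeast display cells were stained for 1 hour at 4 °C with 10% biotinylated, detergent-solubilized Sf9 membrane reagent.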

Sequence | polyreactivity (PSR sort gate)
QVQLVESGGGLVQAGGSLRLSCAASGFIIYGYVMGWYRQAPGKERELVAAINSSSGRTYYADSVKGRFTISRDNAKNTVYLQMKSLKPEDTAVYYCAAYYYGSYDGTPYDYWGQGTQVTVSS | low polyreactivity
QVQLVESGGALVQAGGSLRLSCAASGRTFGINAMGWYRQAPGKERELVAAIRTGGSTYYADSVKGRFTISRDNAKNTVYLQMNSLKPADTAVYYCAAKAYRRYTIPPYGYWGQGTQVTVSS | high polyreactivity
QVQLVESGGGLVQAGGSLRLTCAASGSIFKTNAMGWYRQAPGKERELVAAIRASGGSTYYADSVKGRFTISRDNAKNTVYLQMNSLKPEDTAVYYCAARYWFKYYWGQGTQVTVSS | low polyreactivity
QVQLVESGGGLVQAGGSLRLSCAASGSTSPINAMRWYRQAPGKERELVAVISSSGGRTYYADSVKGRFTISRDNAKNTVYLQMNSLKPEDTAVYYFDKRFSRRQPDYDYWGQGTQVTVSS | high polyreactivity
QVQLVESGGGLVQAGGSLRLICAASGSTLKYYAMGWSRPAPGKERELVARITRSSGSTYYADSVKGRFTISRDNAKNTVYLQMNSMKPEDTAVYYCNKVYKSYYWGGYDWGQGTQVTVSS | high polyreactivity
QVQLVESGGGLVQAGCSLRLSCAASGFTFDDYAMGWYRQAPGKERELVAAISWSGGSTYYADSVKGRFTISRDNAKNTVYLQMNSLKPEDTAVYYCAALRTGAQYSTMDYWGQGTQVTVSS | low polyreactivity
QVQVVESGGGLVQAGGSLRLSCAASGSIFVGYAMGWYRQAPGKEREFVAGITARGGSTYYADSVKGRFTISCDNAKNTVYIPMNSQKPEDSAVYYCAADDGSENDYWGQGTQVTVSS | low polyreactivity
QVQLVESGGGLVQAGGSLRLSCAASGSTFLYYAMGWYRQAPGKERQLVAAISGSGGSTYYADSVKGRFTISRDNAKNNVYLQMYSLKPEDTAVYYCNAVARRHGLGPYDYWGQGTQVTVSS | high polyreactivity
QVQLVESGGGLVQAGGSLRLSCAASGITFGTYTMGWYRQAPGKERELVAAISRSGTGTYYADSVKGRFTISRDNAKNTVYLQMNSLKPEDTAVYYCAAAGYIYYGYEYLYGFEYWGQGTQVTVSS | high polyreactivity
QVQLEESGGGLVQAGGSLRLSCAASGSIIYENTMGWYRQAPGKERELVAAISASGGSTEYADSVKGRFTISRDNEKNTVYLQMKSLKPEDTGVYYCAADACAFYFGGDYWGLGTQVTVSS | low polyreactivity
QVQLVESGGGLVQAGCSLRLSCAASGRTFSKYTMGWYRQAPGKERELVAAISGSGGSTYYADSVKGRFTISRDNAKNTVYLQMNSLKPEDTAVYYCAAEDEYNWYDDYFYTFDYWGQGTQVTVSS | low polyreactivity
QVQLLESGGGLVQAGGSLRLICAASGLIFGPYTMGWYRQAPGKERELVAAITRSGGRTYYADSVKGRFTISRDNAKNTVYLQMNRLKPEDTAVYYCAAYGGQSWDYDYWGQGTQVTVSS | high polyreactivity
QVQLVESGGGLVQAGGSLRLSCASSGSIFFGYGMGWYRQAPGKERELVATITTSGGTYYADSVKGRFRISRDNAKNTDYLQMNSLKPEDTAVYYCAATAAALDGNTIMYYWGQGTQVTVSS | low polyreactivity
QVQLVESGGGLVQAGGSLRLSCAASGNIFDIYAMGWYRQAPGKERELVAAISSGGSTYYADSVKGRFTISRDNAKNTVYFQMNSLKPEDTAVYYCAESRVGYYRYEYWGQGTQVTVSS | low polyreactivity
QVQLVESGGGLVQAGGSLRLSCAASGSTFYKYGMGRNTQAHGKERELVAAISGSGDSTYYADSVKGRFTISRDNAKNSVYLQMNSLKPEDTAVYYCNAGPWCYLHEYDYWGQGTQVTVSS | low polyreactivity
QVQIVESGAGLVQAGGSLSLSCDASGFIFVWYAMGWYRQAPGKERELVAAISWTGGSTYYADSVKGRFTISRDNAKNTVYLQINSLKPEDTAVYYCAATYEFYPEELDYWGQGTQVTVSS | low polyreactivity
QVQLVESGGGLVQAGGSLRLSCAASGFTFDWNAMGWYRQAPGKERELVAAISSSTGRTYYADSVKGRFTISRDNAKNTVYLQMNSLKPEDTAVYYCAASLGGYGERYYYWGQGTQVTVSS | high polyreactivity
QVQLVESGGGLVQAGGSLRLSCAASGSTFFTNVMGWYRQAPGKERELVAVIRWRGSDTYYADSVKGRFTISRDNAKNTVYLQMNSLKPEDTAVYYSNAKESFYPTTGEQGYSYDYWGQGTQVTVSS | low polyreactivity
QVQLVESGGGLVQAGGSLRLSCAASGFTLADNTMGWYRQAPGKERELVATISGSGSTYYADSVKGRFTISRDNAKNTVYLQMNSLKPEDTAVYYCAAVDTGTEKDLLRLGNGGYDYWGQGTQVTVSS | low polyreactivity
QVQLVESGGGLVQAGGSLRLSCAASGFTFSDHAMGWYRQAPGKERELVAAISRSRGNTHYADSVKGRFTISRDNAKNTVYLQMNSLKPEDTAVYYCNAVQGQGQYEYWGQATQVTVSS | high polyreactivity
QVQLVESGGGLVQAGGSLRLSCAASGFIFRRYAMGWYRQAPGKERELVAAISWRSGSTYYADSVKGRFTISRDNAKNTVYLQMNSLKPEDTAVYYCAAKDQATYQLNYWGQGTQVTVSS | high polyreactivity

Sequence | polyreactivity (PSR sort gate)
QVQLVESGGGLVQAGGSLRLSCAASGGIFKYNAMGWYRQAPGKERELVAAIDTSGGSTYYADSVKGRFTISRDKAKNTVYLQMNSLKPDDTAVYYCAAELCLAQYYYWGQGTQVTVTS | low polyreactivity
QVQLVESGGGLVQAGGSLRLSCAASGNTFSDYAMGWYRQAPGKERELVAAISSSGVRTYYADSVKGRYTISRDNAKNTVYLQINSLKPEDTAVSYCNAVLNQLSYIYPAVGFWGQGTLVTVSS | high polyreactivity
QVQLVESGGGLVQAGGSLRLSCAASGINFPRYMGWYRQAPGKERELVAAIRWSSDDTNYADSVKGRFTISRDNAKNTVYLQMNSLKPEDTAVYYCAADSYYDRTIQFEFSASTYDYWGQGTQVTVSS | low polyreactivity
QVQLVESGGGLVQAGGSLRLSCAASGFTSWQYAMGWSIQAPGKERELVAAISVSGASTYYADSVKGRFTISRDNAKNTVYLQMNSLKPEDTAVYYCAAAYVRYPTTRYYYWGQGTQVTVSS | high polyreactivity
QVQLVESGGGLVQAGGSLRLSCAASGRTFYKYALGWYRQAPGKERELVAAITSGGSTNYADSVKGRFTISRDNAKYTVYLQMNSLKPEDTAVYYCNASFEENFPFGDYDYWGQGTQVTGSS | high polyreactivity
QVQLVESGGGLVKAGGSLRLSCAASGFTFPQYAMGWYRQAPGKERELVAAISKRSVGTRYADSVKGRFTISRDNAKNTLYLQMNSLKPEDTAVYYCNKYGQVPGYFSLDYWGQGTQVTVSS | high polyreactivity
QVQLVESGGGLDQAGGSLRLTCAASGSIFAKYAMGWYRQAPGKERELVAAITSSGDSTNYADSVKGRFTISRDNAKNTVYVQMNSLKPEDTAVYYCAADHHYGYVYYAFWGYDYWGQGTQVTVSS | low polyreactivity
QVQLVESGGGLVHAGGSLRLSCSASRFIFDKNSMGWYIQAPGKERELVAAISYGDGRTYYADSVKGRFTISRDNAKNTVYLHMNSLKPEDTEVYYCNTDAKRYIRIYWGQGTQVTVSS | high polyreactivity
QVQLVESGGGLVHAGGSLRLSCAASGSIFGIYTMGWYRQAPGKERELVARINLSGGITYYADSVKGRFKISRDNAKNTVYLQMNSLKPEDTAVYYCNARTVNFPYDYWGQGTQVTVSS | low polyreactivity
QVQLVESGGGLVQAGGSLRLSCAASGSTLSQNAMGWYRQAPGKEREFVADISGSGDSTYYADSVKGRFTISRDNAKNTVYLQMNSLKPEDTAVYYCATPSPHVGLKWEYDYWGQVTQVTVSS | low polyreactivity
QVQLVESGGGLVQAGGSLRLSCAASGSIYQYNAMGWYRQAPGKERELVAAISSRGGITYYADSVKGRFTISRDNAKNTVYLQMNSLKPEDTAVYYCAAEGYYSEVRWYEYWGQGTQVTVSS | high polyreactivity
QVQLVESGGGLVLAGGSLRLSCAASGSIFWVNAMGWYRQAPGKERELVAAINYSDGSTSYADSVKGRFTISRDIAKNTVYLQMNSLKPEDTAVYYCNAESFELMYYWGQGTQVTVSS | low polyreactivity
QVQLVESGGGLVQAGGSLRLSCAASGNTFYGYAMGWYRQAPGKERELVAAITKTGGSTYYADSVKGRFTISRDNAKNTVYLQMNSLKPEDTAVYYCNAARETRPRDYYWGQGTQVTVSS | low polyreactivity
QVQLVESGGGLVQAGGSLRLSCAASGRIFPWYTMGWYRQAPGKERELVAAITSGGNTDYADSVKGRFTISRDNAKNSVYLQMNSLKPEETAVYYCAAGGYPGTTYYGYDYWGQGTQVTVSS | low polyreactivity
QVQLVESGGGLVQAGGSLRLSCAASGSTFESNFMGWYRQAPGKEWELVAAITWTGGSTYYADSVKGRFTISRDNAKNNVYLQMNSLKPVDTAVYYCATYDPGPLLGSDYWGHGTQVTVSS | low polyreactivity
QVELQVSGGGLVRAGGSLRLSCAASGNIFDADIMGWYRQAPGKERELVASITGGGSTSYAESAKGRFTISRDNAKNAVYLQMNSLKPEDTAVYYCAKDGYVYGDWYTYAYDYWGQGTQVTVSS | low polyreactivity
QVQLVESGGGLVQAGGSLRLSCAASGNTFWGNAMGWYRQAPGKERELVATISASAGSTYYADSVKGRFTISRDNAKNTVYLQMNSLKPDDTAVYYCAKTALRYLKHGRTKGDYWGQGTQVTLSS | low polyreactivity
QVQLVESGGGLVQAGGSLRLSCAASGITFPLYAMGWYRQAPGKERELVAAISRRGGRTYADSVKGRFTISRDNAKNTVYLQMNSLKPEDTAVYYCAAKGYSYSRDFYSWGQGTQVTVSS | high polyreactivity
QVQLVESGGGIVQAGGSLRLICAASGRTFKYYAMGWYRQAPGKERELVAAIRSRTGSTYYADSVKGRFTISRDNAKNTVYLQMNSLKPVDTAVYYCAAQPGSYYGPRWYYDDDYWGQGTQVTVSS | high polyreactivity
QVHLVESGGGLVQAGGSLRLSCAASGGNFRPNAMGWYRQAPGKERELVASITRGGSTNYADSVKGRFTISRDNAKNTVYLQMNSLKPEDTAVYYCSALLRYTRTLYYSWGQGTQVTVSS | high polyreactivity
